Measurements reported in article PMC2756588.

Legend:
Experiment in all cases: SPOT array
Abp1, P15891 = molecular target: T1, Abp1, P15891; conditions: median of control spots 935
T1 sequence (P15891 535-592, looked up): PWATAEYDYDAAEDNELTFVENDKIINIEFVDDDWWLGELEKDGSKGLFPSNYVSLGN

Bbc1, P47068 = molecular target: T2, Bbc1, P47068; conditions: median of control spots 796
T2 sequence (P47068 1-78, looked up): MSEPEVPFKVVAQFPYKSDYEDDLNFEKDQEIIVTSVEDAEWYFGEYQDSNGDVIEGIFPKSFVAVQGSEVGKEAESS

Bem1-1, P29366 = conditions: median of control spots 4282
Bem1-2, P29366 = conditions: median of control spots 4347
Boi1, P38041 = molecular target: T3, Boi1, P38041; conditions: median of control spots 1162
T3 sequence (P38041 1-86, looked up): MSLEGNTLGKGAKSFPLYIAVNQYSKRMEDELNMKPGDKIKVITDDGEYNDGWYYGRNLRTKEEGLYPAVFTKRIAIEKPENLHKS

Boi2, P39969 = molecular target: T4, Boi2, P39969; conditions: median of control spots 1161
T4 sequence (P39969 32-116, looked up): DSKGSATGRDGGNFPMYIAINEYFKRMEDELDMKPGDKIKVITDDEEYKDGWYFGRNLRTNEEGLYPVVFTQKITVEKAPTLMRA

Bud14, P27637 = molecular target: T5, Bud14, P27637; conditions: median of control spots 956
T5 sequence (P27637 247-328, looked up): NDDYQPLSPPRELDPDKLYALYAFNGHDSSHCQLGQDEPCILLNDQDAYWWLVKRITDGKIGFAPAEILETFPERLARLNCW

Bzz1-1, P38822 = molecular target: T6, Bzz1-1, P38822; conditions: median of control spots 4446
T6 sequence (P38822 478-572, looked up): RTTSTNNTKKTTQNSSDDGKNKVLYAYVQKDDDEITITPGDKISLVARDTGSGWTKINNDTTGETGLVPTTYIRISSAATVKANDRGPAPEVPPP

Bzz1-2, P38822 = molecular target: T7, Bzz1-2, P38822; conditions: median of control spots 4538
T7 sequence (P38822 568-633, looked up): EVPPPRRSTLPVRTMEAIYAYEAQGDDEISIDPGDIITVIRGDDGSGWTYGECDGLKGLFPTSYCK

Cdc25, P04821 = molecular target: T8, Cdc25, P04821; conditions: median of control spots 969
T8 sequence (P04821 50-136, looked up): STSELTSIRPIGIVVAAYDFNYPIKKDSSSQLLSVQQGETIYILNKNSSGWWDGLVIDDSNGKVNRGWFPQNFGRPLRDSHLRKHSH

Cyk3, Q07533 = molecular target: T9, Cyk3, Q07533; conditions: median of control spots 1451
T9 sequence (Q07533 1-83, looked up): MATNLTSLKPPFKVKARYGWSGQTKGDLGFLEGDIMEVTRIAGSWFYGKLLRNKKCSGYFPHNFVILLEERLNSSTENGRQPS

Fus1, P11710 = molecular target: T10, Fus1, P11710; conditions: median of control spots 1200
T10 sequence (P11710 432-512, looked up): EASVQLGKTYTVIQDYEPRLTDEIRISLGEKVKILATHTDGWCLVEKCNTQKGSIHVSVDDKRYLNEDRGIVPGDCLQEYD

GST = conditions: median of control spots 978
Hof1, Q05080 = molecular target: T11, Hof1, Q05080; conditions: median of control spots 4086
T11 sequence (Q05080 590-669, looked up): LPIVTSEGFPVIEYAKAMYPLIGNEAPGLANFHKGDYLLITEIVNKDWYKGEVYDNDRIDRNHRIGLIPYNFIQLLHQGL

Hse1, P38753 = molecular target: T12, Hse1, P38753; conditions: median of control spots 1727
T12 sequence (P38753 208-285, looked up): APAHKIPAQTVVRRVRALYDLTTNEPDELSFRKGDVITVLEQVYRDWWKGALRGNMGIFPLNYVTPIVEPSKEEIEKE

Lsb1, P53281 = molecular target: T13, Lsb1, P53281; conditions: median of control spots 388
T13 sequence (P53281 45-122, looked up): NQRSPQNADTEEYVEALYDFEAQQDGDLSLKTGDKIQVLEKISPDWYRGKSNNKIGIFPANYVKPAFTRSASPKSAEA

Lsb3, P43603 = molecular target: T14, Lsb3, P43603; conditions: median of control spots 406
T14 sequence (P43603 385-451, looked up): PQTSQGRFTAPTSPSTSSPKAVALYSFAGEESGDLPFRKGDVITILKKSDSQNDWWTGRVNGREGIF

Lsb4, P32793 = molecular target: T15, Lsb4, P32793; conditions: median of control spots 397
T15 sequence (P32793 402-468, looked up): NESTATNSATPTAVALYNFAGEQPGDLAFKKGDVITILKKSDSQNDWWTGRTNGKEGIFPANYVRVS

Myo3, P36006 = conditions: median of control spots 468
Myo5, Q04439 = molecular target: T16, Myo5, Q04439; conditions: median of control spots 471
T16 sequence (Q04439 1072-1160, looked up): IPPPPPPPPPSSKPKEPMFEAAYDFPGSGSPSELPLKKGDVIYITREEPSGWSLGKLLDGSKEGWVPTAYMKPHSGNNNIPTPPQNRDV

Nbp2, Q12163 = molecular target: T17, Nbp2, Q12163; conditions: median of control spots 357
T17 sequence (Q12163 103-180, looked up): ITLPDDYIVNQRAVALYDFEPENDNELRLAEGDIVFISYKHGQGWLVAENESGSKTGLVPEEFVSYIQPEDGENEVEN

Pex13, P80667 = molecular target: T18, Pex13, P80667; conditions: median of control spots 1341
T18 sequence (P80667 295-386, looked up): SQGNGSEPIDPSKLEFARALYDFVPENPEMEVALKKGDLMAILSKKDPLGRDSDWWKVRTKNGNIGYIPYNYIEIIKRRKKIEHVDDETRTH

Pin3, Q06449 = molecular target: T19, Pin3, Q06449; conditions: median of control spots 2171
T19 sequence (Q06449 53-122, looked up): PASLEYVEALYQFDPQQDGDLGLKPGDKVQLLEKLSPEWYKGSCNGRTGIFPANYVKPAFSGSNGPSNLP

Rvs167, P39743 = conditions: median of control spots 2707
Sho1, P40073 = conditions: median of control spots 1148
Sla1-2, P32790 = molecular target: T20, Sla1-2, P32790; conditions: median of control spots 712
T20 sequence (P32790 60-140, looked up): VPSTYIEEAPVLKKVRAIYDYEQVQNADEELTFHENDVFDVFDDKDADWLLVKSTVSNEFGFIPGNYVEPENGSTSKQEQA

Sla1-3, P32790 = molecular target: T21, Sla1-3, P32790; conditions: median of control spots 5475
T21 sequence (P32790 344-424, looked up): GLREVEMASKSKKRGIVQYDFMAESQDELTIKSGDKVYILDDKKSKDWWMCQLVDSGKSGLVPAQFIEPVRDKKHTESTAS

Chain of Bem1-2, P29366 (P29366 139-227): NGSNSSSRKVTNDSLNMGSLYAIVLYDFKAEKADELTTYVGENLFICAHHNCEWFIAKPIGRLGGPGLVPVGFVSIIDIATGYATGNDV
Chain of Bem1-1, P29366 (P29366 55-141): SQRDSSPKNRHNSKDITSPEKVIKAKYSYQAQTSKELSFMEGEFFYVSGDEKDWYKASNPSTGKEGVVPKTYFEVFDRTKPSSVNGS
Chain of Rvs167, P39743 (P39743 419-482): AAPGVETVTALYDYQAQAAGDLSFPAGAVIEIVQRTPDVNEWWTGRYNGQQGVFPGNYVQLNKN
Chain of Sho1, P40073 (P40073 287-367): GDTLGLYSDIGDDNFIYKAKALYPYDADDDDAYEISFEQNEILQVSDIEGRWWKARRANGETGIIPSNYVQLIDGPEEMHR

| Binder | SPOT intensity (Abp1, P15891) | SPOT intensity (Bbc1, P47068) | SPOT intensity (Bem1-1, P29366) | SPOT intensity (Bem1-2, P29366) | SPOT intensity (Boi1, P38041) | SPOT intensity (Boi2, P39969) | SPOT intensity (Bud14, P27637) | SPOT intensity (Bzz1-1, P38822) | SPOT intensity (Bzz1-2, P38822) | SPOT intensity (Cdc25, P04821) | SPOT intensity (Cyk3, Q07533) | SPOT intensity (Fus1, P11710) | SPOT intensity (GST) | SPOT intensity (Hof1, Q05080) | SPOT intensity (Hse1, P38753) | SPOT intensity (Lsb1, P53281) | SPOT intensity (Lsb3, P43603) | SPOT intensity (Lsb4, P32793) | SPOT intensity (Myo3, P36006) | SPOT intensity (Myo5, Q04439) | also measured |
| --- | --- | --- | --- | --- | --- | --- | --- | --- | --- | --- | --- | --- | --- | --- | --- | --- | --- | --- | --- | --- | --- |
| TYNRTAFQIPGDQSI | 0 | 0 | 0 | 0 | 1 | 0 | 0 | 2 | 0 | 0 | 0 | 0 | 0 | 0 | 0 | 705 | 0 | 0 | 0 | 1 | SPOT intensity (Nbp2, Q12163): 0; SPOT intensity (Pex13, P80667): 0; SPOT intensity (Pin3, Q06449): 45; SPOT intensity (Rvs167, P39743): 0; SPOT intensity (Sho1, P40073): 0; SPOT intensity (Sla1-2, P32790): 0; SPOT intensity (Sla1-3, P32790): 1 |
| NNNKMRPHLPPLSSG | 59 | 0 | 1 | 16 | 3 | 0 | 35 | 1 | 62 | 22 | 0 | 1 | 0 | 1460 | 24 | 81 | 1 | 22 | 18 | 7 | SPOT intensity (Nbp2, Q12163): 12; SPOT intensity (Pex13, P80667): 84; SPOT intensity (Pin3, Q06449): 85; SPOT intensity (Rvs167, P39743): 0; SPOT intensity (Sho1, P40073): 61; SPOT intensity (Sla1-2, P32790): 0; SPOT intensity (Sla1-3, P32790): 0 |
| HPRFVSPRIPSRIVK | 133 | 226 | 0 | 2 | 0 | 0 | 0 | 0 | 0 | 2 | 0 | 0 | 0 | 0 | 9 | 379 | 41 | 57 | 3 | 0 | SPOT intensity (Nbp2, Q12163): 2; SPOT intensity (Pex13, P80667): 21; SPOT intensity (Pin3, Q06449): 86; SPOT intensity (Rvs167, P39743): 4; SPOT intensity (Sho1, P40073): 40; SPOT intensity (Sla1-2, P32790): 0; SPOT intensity (Sla1-3, P32790): 15 |
| DGNEEKPLLPTRPNK | 0 | 43 | 0 | 0 | 0 | 0 | 0 | 0 | 0 | 0 | 0 | 0 | 0 | 23 | 1 | 174 | 493 | 281 | 0 | 0 | SPOT intensity (Nbp2, Q12163): 0; SPOT intensity (Pex13, P80667): 81; SPOT intensity (Pin3, Q06449): 0; SPOT intensity (Rvs167, P39743): 263; SPOT intensity (Sho1, P40073): 0; SPOT intensity (Sla1-2, P32790): 0; SPOT intensity (Sla1-3, P32790): 5 |
| VKPRQLFPIPLNKVD | 10 | 0 | 0 | 0 | 0 | 0 | 0 | 1 | 0 | 0 | 0 | 0 | 0 | 0 | 0 | 880 | 0 | 0 | 0 | 0 | SPOT intensity (Nbp2, Q12163): 0; SPOT intensity (Pex13, P80667): 0; SPOT intensity (Pin3, Q06449): 5; SPOT intensity (Rvs167, P39743): 0; SPOT intensity (Sho1, P40073): 8; SPOT intensity (Sla1-2, P32790): 0; SPOT intensity (Sla1-3, P32790): 0 |
| NILKRRPLKLEAPSK | 92 | 272 | 0 | 0 | 7 | 3 | 19 | 2 | 18 | 297 | 4 | 37 | 0 | 14 | 302 | 2 | 0 | 1 | 4 | 0 | SPOT intensity (Nbp2, Q12163): 0; SPOT intensity (Pex13, P80667): 2; SPOT intensity (Pin3, Q06449): 1; SPOT intensity (Rvs167, P39743): 0; SPOT intensity (Sho1, P40073): 65; SPOT intensity (Sla1-2, P32790): 0; SPOT intensity (Sla1-3, P32790): 28 |
